According to the DeepSol protein solubility set:

test: soluble on expression in E. coli; label from the status in PepcDB or PDB records

Sequence | soluble on expression in E. coli
SPNSMSALKAVFQYIDENQDRYVKKLAEWVAIQSVSAWPEKRGEIRRMMEVAAADVQRLGGSVELVDIGKQKLPDGSEIPLPPILLGKLGSDPQKKTVCIYGHLDVQPAALEDGWDSEPFTLVEREGKLYGRGSTDDKGPVAGWMNALEAYQKTGQEIPVNLRFCLEGMEESGSEGLDELIFAQKDKFFKDVDYVCISDNYWLGKNKPCITYGLRGICYFFIEVECSDKDLHSGVYGGSVHEAMTDLISLMGCLVDKKGKILIPGINDAVAPVTDEEHALYDHIDFDMEEFAKDVGAETLLHSCKKDILMHRWRYPSLSLHGIEGAFSGSGAKTVIPRKVVGKFSIRLVPDMIPEVVSEQVSSYLSKKFAELQSPNKFKVYMGHGGKPWVSDFNHPHYQAGRRALKTVFGVEPDLTREGGSIPVTLTFQEATGKNVMLLPVGSADDGAHSQNEKLNRLNYIEGTKMLAAYLYEVSQLKN | soluble
MSNITIYHNPACGTSRNTLEMIRNSGTEPTIILYLENPPSRDELVKLIADMGISVRALLRKNVEPYEQLGLAEDKFTDDQLIDFMLQHPILINRPIVVTPLGTRLCRPSEVVLDILQDAQKGAFTKEDGEKVVDEAGKRLK | soluble
AHHHHHHASAKWVCKICGYIYDEDAGDPDNGISPGTKFEELPDDWVCPICGAPKSEFEKLEDGSFKLYSLAREFARDLLFEINGDVVTLSIKGVLLANTSSTSSNFSIFEVSENEFILAIQTSGYVVYLGIEAEEEIEEEVYPSLVRIIISEVMPIINNLVQVAKELSYKGADILLDDNMSSSLREAMYNLLLKHKKGKSPYEQVEVA | soluble
MGSDKIHHHHHHMDSKHSMISLKQKLSGLLDVIPKQSEIIYADYPLYGNVGDLFIMKGTEAFFKEHGIRVRKRWNPDNFPIGRKLDPNLIIVCQGGGNFGDLYPYYQGFREKIVQTYPNHKIVILPQSIYFQNKDNLKRTAEIFSKHANLHIMTREKASYATAQAYFTTNHIQLLPDMAHQLFPVIPTQQPSNQKLRFIRTDHEANQALQEHAEAESYDWRTVLSASDRRTIAFLQTLNVLNKKAGNPLPIAYIWEKYSDYIVQKAIRFFSRYESVETSRLHGHILSSLLQKENTVIDNSYGKNANYFHTWMEGVPSTRLIQHASKKENLPAHM | not soluble
MAEAVITLTEAAAFQIKDMMKEQEEEGAYLRVGVHGGGCSGLSYGMGFDHERRDDDIEFEQHGIKILVDRDSAPILRGTVIDYKQSLLGGGFTINNPNAIATCGCGSSFRTATNAGTPEQC | soluble
MNLKQLEVFLAVAESGSFSRGAEATFLTQSTVSQHIAALESEVGVRLLDRTSRGALLTEGGKILLEHARKVVAGSREISKVMRRFRGLEEAELRIGGSTIPADYMIPAMLASFLGRHPGVQVTLLQGDSRDILDRIEREDAEVGIIGSRFDEEGFTFTPLGRDEIRLIAAPDHPLAGTGAVPLAELANHGFVFRELGSGTAKSVAEALAGAGLPAEKLHVRACLGSNEAVKQAVAAGLGLSFVSELSVRKELARGELVELPVEGLTIARTFYLVARTGRELSPPAVAFIGELTGTRLA | not soluble
MGSDKIHHHHHHMKDNFFGREYDIAPAGGETGQAFVATHEDEKFFLKRNSSPFLAALSVENIVPKLVWTRRVENGDVITAQKWVNCHILTREEMVGPRVAKLLAKIHHSENLRHMLEKIENCYFSAHQLLARLKAEMKAKNEANNVMQTAIEYLERNITAVEKADYVVCHGDVNHNNWIISEENELFLVDWDGAMLADAANDLGMILYQYIPREGWDEWLSNYGTTLTSELHRKLKWYTLCQTVMQLTTNQSEEAYERAKQIFQNAIEDDEV | not soluble
LVCRGSNEPTYCLCHQVSYGEMIGCDNPDCPIEWFHFACVDLTTKPKGKWFCPRCVQEK | soluble
MQEESYYNLTVGDTHDRLHNFQITVDTDYRNFVQLVNTMRSPNIAQQDRAFLQLQQLGLQHPDYIRKARVPETMRQFAEGAAGKRRIRSCHGTYLHWYDEGLKVDMKSGEAGTCENWIIEDWNEKVVFRAVDPRGKYLRACLGSNQLTLVYIPEPTELWSPFENGNGTWSFLSSNGTWLSAHEDGQVCTVKDRQACEEFLLESW | not soluble
MVASSINEESSLAVNLTSDVEKASKTLFKAFEKSYANDYLMKKFFHIPITEKVSRARINAMIHYYTTCYHDLDGEIAEANDFDAVAIWSRPGCHLPATLSDDESFNKIFFSRLDCEEARSHASGNGLLLPLCHRKRS | not soluble
